Source: patent US11351268B2, “FGF21 C-terminal peptide optimization” (INDIANA UNIVERSITY RESEARCH AND TECHNOLOGY CORPORATION, priority 2016, dated 2022)
Residue numbers refer to the chain shown, from its start. Numbers in names are those of the source. Where “and” joins values, the source holds several entries; their conditions need not be identical. Identical values can stand only once. Like-named read-outs stand apart in the source and are kept apart here.

How the values were obtained:
mouse KLB = biological target: T1, mouse KLB (Mus musculus, UniProt P16092+Q99N32); test: agonism in cells overexpressing mouse KLB; format: cell-based; conditions: FIG. 11B, read-out: potency (agonism)
T1 construct: expressed in transfected cells

FGF21 receptor = test: Erk1/2 phosphorylation assay: agonist activity in 293T HEK hKLB cells; format: cell-based, human; conditions: for IC50: full length FGF21 analogs, tested in triplicate
Protocol: Cells were cultured in 10% Fetal Bovine Serum containing DMEM High glucose GLUTAMAX® at 37 C, 95% humidity, 5% CO2. For generating the cell line with stable expression, human KLB gene was synthesized by Genscript and subcloned into pcDNA3.1(+) with ZEOCIN® resistance vector (INVITROGEN®) by NheI and NotI restriction enzyme sites. HEK 293T cells were obtained from ATCC and were transiently transfected at 80% confluency using Lipofectamine 3000 (Invitrogen). Selection for KLB-expressing cells was initiated 48 hours post-transfection in the growth media containing 100 μg/ml of ZEOCIN® (Gibco) and continued for 4 weeks with fresh media added every third day. Human KLB expression in pooled cells was confirmed by Western blot and a functional FGF21 MAPK phosphorylation assay.
293 HEK cells expressing hKLB were plated to 90% confluency in 96 well plates coated with poly-D-Lysine. Cells were serum starved for three hours in 0.1% BSA containing media prior to stimulation with protein and/or an antagonist peptide for ten minutes at 37° C. The cell lysate was used for the detection of phospho-Erk1/2 levels by AlphaSureFire kit using the prescribed protocol. The degree of biochemical activation was recorded and analyzed using Origin software by logistic curve fitting. Tests at each concentration were done in triplicates, and the standard deviation is as shown in the graphs. The calculation of maximal activities was done keeping the FGF21 157-181 or FGF19 169-194 peptide activity as standard. The difference between the Erk1/2 phosphorylation signal for the highest (10 μM) and the lowest (0 μM) tested dose for native peptide was considered as 100% and accordingly all the other values were assigned.

[1] = in vivo administration of FGF analogs to mice on diabetogenic diet; set-up: species or system C57Bl/6 mice; conditions: 0.3 or 1.0 mg/kg daily subcutaneous, relative to native FGF21; for change in body weight: 6 days
Protocol: C57Bl/6 mice were obtained from Jackson Laboratories and fed a diabetogenic diet from Research Diets: a high-sucrose diet with 58% kcal from fat. Mice were group-housed on a 12:12-h light-dark cycle at 22° C. with free access to food and water. All studies were approved by and performed according to the guidelines of the Institutional Animal Care and Use Committee of the University of Cincinnati. All mice were treated by daily subcutaneous injections delivered in physiologically buffered saline at a dose of 0.3 or 1 mg/kg. Animals were weighed and food consumption was measured each day.
Unless indicated otherwise, all statistical analyses were performed using GraphPad Prism. The analysis of the results obtained in the in vivo experiments was performed using one-way ANOVAs followed by Tukey post hoc tests. P values lower than 0.05 were considered significant. The results are presented as means±s.e.m. of 7-8 replicates per group. Receptor activation data is ±s.d.
The effect of FGF analog V2-0278-1A on mice was investigated by administering either vehicle, FGF21 (at 0.3 mg/kg or 1.0 mg/kg) or V2-0278-1A (at 0.3 mg/kg or 1.0 mg/kg) and monitoring weight over the course of 6 days of treatment.

[2] = FIG. 11A, cells overexpressing human KLB, read-out: potency (agonism)
[3] = FIGS. 9A/9B, full length proteins, Erk1/2 phosphorylation, read-out: EC-50
[4] = FIG. 12, cells overexpressing human KLB, read-out: potency

Sequence of FGF21 receptor (Q86Z14 whole entry): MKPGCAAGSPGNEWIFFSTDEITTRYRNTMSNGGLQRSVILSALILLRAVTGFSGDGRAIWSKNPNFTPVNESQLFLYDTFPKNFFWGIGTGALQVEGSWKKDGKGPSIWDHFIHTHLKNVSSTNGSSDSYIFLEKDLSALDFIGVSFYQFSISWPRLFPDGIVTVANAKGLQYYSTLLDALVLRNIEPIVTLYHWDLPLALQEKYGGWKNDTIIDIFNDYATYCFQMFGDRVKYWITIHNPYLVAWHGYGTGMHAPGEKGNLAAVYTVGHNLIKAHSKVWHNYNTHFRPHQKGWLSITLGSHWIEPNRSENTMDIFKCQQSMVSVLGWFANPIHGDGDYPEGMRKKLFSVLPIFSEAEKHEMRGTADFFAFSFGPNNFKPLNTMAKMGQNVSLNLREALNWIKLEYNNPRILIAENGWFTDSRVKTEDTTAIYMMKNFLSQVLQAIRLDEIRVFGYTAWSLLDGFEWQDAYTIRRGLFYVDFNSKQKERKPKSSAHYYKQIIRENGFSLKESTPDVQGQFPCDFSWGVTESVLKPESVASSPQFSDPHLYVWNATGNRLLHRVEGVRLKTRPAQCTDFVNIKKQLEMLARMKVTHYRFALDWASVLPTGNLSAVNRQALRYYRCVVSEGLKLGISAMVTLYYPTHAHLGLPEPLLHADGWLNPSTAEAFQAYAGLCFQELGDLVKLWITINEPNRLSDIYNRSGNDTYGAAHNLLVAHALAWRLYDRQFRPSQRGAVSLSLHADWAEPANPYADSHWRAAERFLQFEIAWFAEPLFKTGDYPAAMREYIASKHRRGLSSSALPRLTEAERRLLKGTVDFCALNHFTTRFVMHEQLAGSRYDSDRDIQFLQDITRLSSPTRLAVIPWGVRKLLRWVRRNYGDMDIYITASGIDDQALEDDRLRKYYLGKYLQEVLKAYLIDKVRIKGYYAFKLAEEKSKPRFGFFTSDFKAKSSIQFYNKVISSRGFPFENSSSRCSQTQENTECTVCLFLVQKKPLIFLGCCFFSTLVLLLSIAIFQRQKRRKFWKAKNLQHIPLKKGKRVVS
T1 sequence (Q99N32 whole entry): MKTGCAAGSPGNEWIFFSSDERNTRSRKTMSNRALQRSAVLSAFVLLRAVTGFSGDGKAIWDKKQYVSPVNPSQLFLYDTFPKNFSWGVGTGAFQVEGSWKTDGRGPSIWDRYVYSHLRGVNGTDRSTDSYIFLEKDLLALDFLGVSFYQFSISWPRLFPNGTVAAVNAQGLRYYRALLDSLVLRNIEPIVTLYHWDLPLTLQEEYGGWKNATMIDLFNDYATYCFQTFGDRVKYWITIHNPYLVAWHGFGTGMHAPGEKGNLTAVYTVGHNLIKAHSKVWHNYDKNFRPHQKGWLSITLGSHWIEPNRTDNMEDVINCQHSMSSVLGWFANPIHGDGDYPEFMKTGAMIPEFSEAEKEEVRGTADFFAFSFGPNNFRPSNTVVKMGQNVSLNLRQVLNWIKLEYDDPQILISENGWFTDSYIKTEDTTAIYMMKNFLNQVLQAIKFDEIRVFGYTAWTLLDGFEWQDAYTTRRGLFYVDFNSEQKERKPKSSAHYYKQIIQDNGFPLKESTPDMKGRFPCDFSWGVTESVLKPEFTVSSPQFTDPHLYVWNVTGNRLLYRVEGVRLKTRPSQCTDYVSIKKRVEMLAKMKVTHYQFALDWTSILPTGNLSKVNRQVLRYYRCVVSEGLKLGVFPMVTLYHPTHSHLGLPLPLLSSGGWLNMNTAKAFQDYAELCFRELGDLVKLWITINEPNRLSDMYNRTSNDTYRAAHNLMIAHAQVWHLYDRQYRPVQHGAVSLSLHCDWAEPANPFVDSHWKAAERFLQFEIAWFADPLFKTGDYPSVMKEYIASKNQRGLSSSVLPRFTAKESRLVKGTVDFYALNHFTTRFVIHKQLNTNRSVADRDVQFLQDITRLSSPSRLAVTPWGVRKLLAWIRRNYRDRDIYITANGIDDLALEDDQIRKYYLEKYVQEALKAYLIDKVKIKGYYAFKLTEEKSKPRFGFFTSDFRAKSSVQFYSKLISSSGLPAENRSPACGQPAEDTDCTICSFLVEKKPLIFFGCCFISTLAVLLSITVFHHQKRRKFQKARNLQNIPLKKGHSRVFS
T1 sequence (P16092 22-822): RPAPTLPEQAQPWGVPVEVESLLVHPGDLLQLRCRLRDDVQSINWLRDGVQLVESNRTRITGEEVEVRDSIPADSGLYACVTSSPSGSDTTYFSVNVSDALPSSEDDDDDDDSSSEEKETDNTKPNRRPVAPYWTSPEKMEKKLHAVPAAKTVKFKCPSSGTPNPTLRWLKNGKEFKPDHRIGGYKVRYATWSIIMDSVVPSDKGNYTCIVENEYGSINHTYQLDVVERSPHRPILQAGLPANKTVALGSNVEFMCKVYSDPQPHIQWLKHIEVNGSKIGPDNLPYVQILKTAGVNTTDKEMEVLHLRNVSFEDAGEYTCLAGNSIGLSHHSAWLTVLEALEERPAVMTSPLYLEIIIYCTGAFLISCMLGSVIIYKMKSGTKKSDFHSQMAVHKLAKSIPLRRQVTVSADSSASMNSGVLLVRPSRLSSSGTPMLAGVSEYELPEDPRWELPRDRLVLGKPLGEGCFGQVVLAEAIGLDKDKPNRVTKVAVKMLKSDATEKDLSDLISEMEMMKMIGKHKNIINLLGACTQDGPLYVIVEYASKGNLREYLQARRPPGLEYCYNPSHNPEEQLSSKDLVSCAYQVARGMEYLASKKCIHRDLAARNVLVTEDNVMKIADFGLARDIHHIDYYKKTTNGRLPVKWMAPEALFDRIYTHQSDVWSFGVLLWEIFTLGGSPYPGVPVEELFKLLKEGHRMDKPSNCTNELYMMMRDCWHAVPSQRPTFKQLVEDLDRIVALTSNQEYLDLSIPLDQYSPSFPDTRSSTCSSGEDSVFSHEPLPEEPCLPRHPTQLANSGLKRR

## FGF19: native full length FGF19 protein [reference compound]
Mouse KLB
  EC50: 25.7 ± 21.3 nM
FGF21 receptor; [2]
  EC50: 65.8 ± 58.2 nM
FGF21 receptor; FIGS. 9A/9B, full length proteins, Erk1/2 phosphorylation
  % maximal activity: 27%
FGF21 receptor; [3]
  EC50: 148 nM

B1: FGF21: native full length mature FGF21 protein (protein, listed as Homo sapiens)
chain: HPIPDSSPLLQFGGQVRQRYLYTDDAQQTEAHLEIREDGTVGGAADQSPESLLQLKALKPGVIQILGVKTSRFLCQRPDGALYGSLHFDPEACSFRELLLEDGYNVYQSEAHGLPLHLPGNKSPHRDPAPRGPARFLPLPGLPPALPEPPGILAPQPPDVGSSDPLSMVGPSQGRSPSYAS
Mouse KLB
  EC50: 3.96 ± 1.51 nM
FGF21 receptor; [2]
  EC50: 8.42 ± 4.1 nM
FGF21 receptor; [3]
  EC50: 4.5 nM and 3.3 nM

B2: 0278-1A: fusion of the N-terminus of FGF21 and C-terminal peptide FGF19 A26 (protein, listed as Homo sapiens)
chain: HPIPDSSPLLQFGGQVRQRYLYTDDAQQTEAHLEIREDGTVGGAADQSPESLLQLKALKPGVIQILGVKTSRFLCQRPDGALYGSLHFDPEACSFRELLLEDGYNVYQSEAHGLPLHLPGNKSPHRDPAPRGPARFLPLPGLPPALPEPPGILAPQLETDSMDPFGLVTGLEAVRSPSFEA
Mouse KLB
  EC50: 2.15 ± 0.54 nM
FGF21 receptor; [2]
  EC50: 1.82 ± 0.37 nM
FGF21 receptor; [4]
  EC50: 1.13 ± 0.28 nM

B3: V2-0278-1A: 0278-1A with A31C, G43C, L98D, L100K, N121D, D127K (protein, listed as Homo sapiens)
chain: B2 chain with A31C, G43C, L98D, L100K, N121D, D127K
[1]
  change in body weight: enhanced weight loss
  food intake: reduced food intake
[1]; listed as 0361
  change in body weight: superior change in body weight
  food intake: greater reduction in total food intake
FGF21 receptor; [4]
  EC50: 0.35 ± 0.12 nM
FGF21 receptor; cells overexpressing human KLB
  fold higher potency versus 0278-1A: 2-3 ×

B4: FGF21 486K: analog of FGF21 486A where the C-terminal alanine is replaced with a lysine (protein)
chain: HPIPDSSPLLQFGGQVRQRYLYTDDAQQTECHLEIREDGTVGCAADQSPESLLQLKALKPGVIQILGVKTSRFLCQRPDGALYGSLHFDPEACSFREDLKEDGYNVYQSEAHGLPLHLPGDKSPHRKPAPRGPARFLPLPGLPPALPEPPGILAPQPPDVGSSDPFGLVGPSQGRSPSFEK
FGF21 receptor
  IC50: 3.16 ± 0.56 nM

B5: FGF21 486A: modified FGF21 N-terminus fused to peptide 0486 (protein, listed as Homo sapiens)
chain: B4 chain with K181A
FGF21 receptor
  IC50: 0.21 ± 0.03 nM

B6: FGF21 480K: analog of FGF21 480A where the C-terminal alanine is replaced with a lysine (protein)
chain: B4 chain with G161F, S163M
FGF21 receptor
  IC50: 1.62 ± 0.54 nM

B7: FGF21 480A: modified FGF21 N-terminus fused to peptide 0480 (protein, listed as Homo sapiens)
chain: B4 chain with G161F, S163M, K181A
FGF21 receptor
  IC50: 0.43 ± 0.04 nM

B8: FGF21 470K: analog of FGF21 470A where the C-terminal alanine is replaced with a lysine (protein)
chain: B4 chain with S163M, P171R
FGF21 receptor
  IC50: 6.14 ± 1.93 nM

B9: FGF21 470A: modified FGF21 N-terminus fused to peptide 0470 (protein, listed as Homo sapiens)
chain: B4 chain with S163M, P171R, K181A
FGF21 receptor
  IC50: 0.61 ± 0.06 nM

B10: FGF21 431K: analog of FGF21 431A where the C-terminal alanine is replaced with a lysine (protein)
chain: B4 chain with S163M
FGF21 receptor
  IC50: 4.3 ± 0.07 nM

B11: FGF21 431A: FGF21 N-terminus (A31C, G43C, L98D, L100K, N121D, D127K) fused to peptide 0431 (protein, listed as Homo sapiens)
chain: B4 chain with S163M, K181A
FGF21 receptor
  IC50: 0.51 ± 0.21 nM
